The text below walks through data of IntAct's records for PubMed 17380122.

Sequences and labels used below:
B1: Regulator of G-protein signaling 12 (Mus musculus), Q8CGE9 (parent)
chain: MYRAGEPGKRQPGPAPPRVRSVEVARGRAGYGFTLSGQAPCVLSCVMRGSPADFVGLRAGDQILAINEINVKKASHEDVVKLIGKCSGVLHMVIAEGTSHVESCSSDEEGGLYEGKGWLRPKLDSKALGINRAERVVEEVQSGGIFNMIFESSSLCASGPEPLKLKQRSLSESAALRLDAGQAGLCAPHPSMLSKEDISKVINDDSVFTVGLDSHDDFGLDASILNVAMVVGYLGSIELPSTSSNLEHDSLQAIRGCMRRLRAEQKIHSLVTMKVMHDCVQLVTDRAGVVAEYPAEKLAFSAVCPDDRRFFGLVTMQTNDDGGLAQEDEGALRTSCHVFMVDPDLFHHKIHQGIARRFGFACTADPDTSGCLEFPASSLPVLQFISVLYRDMGELIEGVRARAFLDGDADAHQNNSTSSNSDSGIGNFNQEEKSNRVLVVDLGGGSSRHGQGSSPGWESGGGRGSQPWSAPWNGAFCHDSEAGSPLETSPNTDRFWDLTKHSGPVSHMEVPPATLRSSIPPSKRGAAGSSCGFNQRWLPVHVLQEWQCGHASDQESYTDSTDGWSSVNCGTLPPPMSKIPADRYRVEGSFAQAPLSTQKRDWSRKAFGMQNLFGPHRNVRKTKEDKKSSKLGRGVALAQTSQRTSARRSFGRSRRFSITRSLDDLESATVSDGELTGADLKDCISNNSLSSNASLPSVQSCRRLRERRVASWAVSFERLLQDPVGVRYFSDFLRKEFSEENILFWQACECFSHVPAHDKKELSYRAREIFSKFLCSKATTPVNIDSQAQLADDILNAPHPDMFKEQQLQIFNLMKFDSYTRFLKSQLYQECVLAEVEGRTLPDSQQVPSSPASKHSISSDHSNVSTPKKLSGKSKSGRSLNEDVGEEDSEKKRRGAFFSWSRSRSTGRSQKKKDHGDHAHDAPHANGGLCRRESQGSVSSAGSLDLSEACRTSALEKDKAAKHCCVHLPDGTSCVVAVKSGFSIKEILSGLCERHGINGAAVDLFLVGGDKPLVLHQDSSILATRDLRLEKRTLFRLDLVPINRSVGLKAKPTKPVTEVLRPVVAKYGLDLGSLLVRLSGEKEPLDLGAPISSLDGQRVILEERDPSRGKVSTDKQKGAPVKQNSAVNSSPRNHLAMGEERTLGKSNSIKIRGENGKSARDPRLSKREESIAKIGKKKYQKINLDEAEEFFELISKAQSNRADDQRGLLRKEDLVLPEFLRLPAGSSELALSSPPPVKGYSKRAVTGHGQEGAAQTEESYSDSPATSPASAQSPCSAYSPGSAHSPGSAHSTPGPPGTTQPGEKPTKPSCVSMVQEGTTQAWRRLSPEMEAGGIQTVEDEQVADLTLMGEGDISSPNSTLLPPPPTPQDTPGPPRPGTSRF

Variants of B1 are the subject of one test. The note with it: with rash_rat Hras.
For the variant H995L, the “effect of a mutation on the interaction” value was “decreasing interaction”.

In a further test the parent is B1. The note with it: with rasn_rat Nras.
Consider H995L, for which the “effect of a mutation on the interaction” value is recorded as “decreasing interaction”.
